Laboratory results from patent CN111995682A (BIOSION BIO TECH NANJING CO LTD, dated 2020).

Columns and labels:
人SIRPβ-ECD-His抗原 = target: T1, 人SIRPβ-ECD-His抗原 (human, UniProt O00241 30-371); assay: ELISA summary (Table 3, methods of Example 2)
T1 construct: It ends in a His tag; also called SIRPβ抗原

重组人SIRPα带his标签的蛋白 [1] = target: T2, 重组人SIRPα带his标签的蛋白 (human, UniProt P78324 31-373); assay: SPR (Biacore T200), ratio of KD against Benchmark
T2 construct: extracellular domain; also called 人SIRPα-his抗原; SRPA-ECD-His; not shown: C-terminal His tag from vector pCMV-C-His
T2 sequence (P78324 31-373): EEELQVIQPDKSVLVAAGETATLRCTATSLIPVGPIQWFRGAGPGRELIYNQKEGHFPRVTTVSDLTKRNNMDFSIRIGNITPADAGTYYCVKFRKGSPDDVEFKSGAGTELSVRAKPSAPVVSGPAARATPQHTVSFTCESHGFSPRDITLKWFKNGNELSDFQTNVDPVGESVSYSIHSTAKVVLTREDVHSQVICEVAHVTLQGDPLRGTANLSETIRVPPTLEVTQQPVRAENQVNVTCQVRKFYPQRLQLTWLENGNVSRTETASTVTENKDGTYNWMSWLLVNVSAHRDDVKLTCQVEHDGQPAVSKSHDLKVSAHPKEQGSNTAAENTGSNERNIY

重组人SIRPα带his标签的蛋白 [2] = target: T2, 重组人SIRPα带his标签的蛋白; assay: SPR (Biacore T200), antibody captured on anti-mouse IgG CM5 chip, human SIRPα-his as analyte
重组人SIRPα带his标签的蛋白 [3] = target: T2, 重组人SIRPα带his标签的蛋白; assay: SPR (Biacore T200), human SIRPα-his as analyte

T1 sequence (O00241 other isoform, or with tags, fused parts or gaps): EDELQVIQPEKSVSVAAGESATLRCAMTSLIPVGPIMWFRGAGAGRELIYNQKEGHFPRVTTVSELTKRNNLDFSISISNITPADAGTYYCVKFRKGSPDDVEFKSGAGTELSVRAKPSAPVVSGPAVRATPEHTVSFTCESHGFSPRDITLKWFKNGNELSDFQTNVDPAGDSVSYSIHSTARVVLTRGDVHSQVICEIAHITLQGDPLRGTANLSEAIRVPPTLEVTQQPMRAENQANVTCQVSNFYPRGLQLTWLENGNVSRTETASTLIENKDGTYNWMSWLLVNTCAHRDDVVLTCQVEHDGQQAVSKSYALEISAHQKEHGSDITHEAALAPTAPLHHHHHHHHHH

binding result (人SIRPβ-ECD-His抗原) | fold stronger affinity than Benchmark (重组人SIRPα带his标签的蛋白 [1]) [fold] | Kd (重组人SIRPα带his标签的蛋白 [2]) [nM] | Kd (重组人SIRPα带his标签的蛋白 [3]) [nM] | Binder
binds | ~2.4 | 1.25 | – | 抗人SIRPα单克隆抗体 A2D9D1B1 (antibody, mouse IgG1, kappa, V domains shown, also called 鼠抗A2D9D1B1; A2D9D1B1单克隆抗体) VH: QVQLKESGPGLVAPSQSLSITCTVSGFSLSSYAIHWVRQPPGKGLEWLGVIWTGGSTIYNSALMSRLNISKDNSKSQVFLKMNSLQTDDTAMYYCARGNYLRYWGQGTLVTVSA VL: NIVLTQSPASLAVSLGQRATISCRASESVDSYGYSYMHWNQQKPGQPPKLLIYLASDLESGVPARFSGSGSRTDFTLTIDPVEADDAATYYCQQNNDDPWTFGGGTKLEIKR
– | – | – | 2.94 | Benchmark (KWAR23抗体) (antibody, human IgG4 S228P, kappa, V domains shown, Made in-house; full heavy and light chains are printed; The printed constant regions look human, while the ELISA and Biacore protocols describe anti-mouse capture and detection reagents; also called BM; 参照抗体) VH: EVQLQQSGAELVKPGASVKLSCTASGFNIKDYYIHWVQQRTEQGLEWIGRIDPEDGETKYAPKFQDKATITADTSSNTAYLHLSSLTSEDTAVYYCARWGAYWGQGTLVTVSA VL: QIVLTQSPAIMSASPGEKVTLTCSASSSVSSSYLYWYQQKPGSSPKLWIYSTSNLASGVPARFSGSGSGTSYSLTISSMEAEDAASYFCHQWSSYPRTFGAGTKLELKR
